# Test system: primary human cell cultures (11 cell types)
# Test: Custom gene array, 11 human cell types in normoxia or hypoxia for 6 hr and 18 hr;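 for mRNA expression level, #1 HY 18 hr: cell type #1 is adipocyte from subcutaneous adult adipose tissue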;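 for mRNA expression level, #1 HY 6 hr: cell type #1 is adipocyte from subcutaneous adult adipose tissue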;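 for mRNA expression level, #1 NO: cell type #1 is adipocyte from subcutaneous adult adipose tissue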;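 for mRNA expression level, #2 HY 18 hr: cell type #2 is fetal cardiomyocyte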;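 for mRNA expression level, #2 HY 6 hr: cell type #2 is fetal cardiomyocyte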;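 for mRNA expression level, #2 NO: cell type #2 is fetal cardiomyocyte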;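 for mRNA expression level, #3 HY 6 hr: cell type #3 is human umbilical vein endothelial cells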;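 for mRNA expression level, #3 NO: cell type #3 is human umbilical vein endothelial cells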;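 for mRNA expression level, #4 HY 18 hr: cell type #4 is adult dermal fibroblast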;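 for mRNA expression level, #4 HY 6 hr: cell type #4 is adult dermal fibroblast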;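 for mRNA expression level, #4 NO: cell type #4 is adult dermal fibroblast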;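 for mRNA expression level, #6 HY 6 hr: cell type #6 is blood-derived macrophage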;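 for mRNA expression level, #6 NO: cell type #6 is blood-derived macrophage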
# Format: cell-based
# Settings: for mRNA expression level, #1 HY 6 hr: cell type #1, hypoxia 6 hr; for mRNA expression level, #1 HY 18 hr: cell type #1, hypoxia 18 hr; for mRNA expression level, #1 NO: cell type #1, normoxia; for mRNA expression level, #2 HY 6 hr: cell type #2, hypoxia 6 hr; for mRNA expression level, #2 HY 18 hr: cell type #2, hypoxia 18 hr; for mRNA expression level, #2 NO: cell type #2, normoxia; for mRNA expression level, #3 HY 6 hr: cell type #3, hypoxia 6 hr; for mRNA expression level, #3 HY 18 hr: cell type #3, hypoxia 18 hr; for mRNA expression level, #3 NO: cell type #3, normoxia; for mRNA expression level, #4 HY 6 hr: cell type #4, hypoxia 6 hr; for mRNA expression level, #4 HY 18 hr: cell type #4, hypoxia 18 hr; for mRNA expression level, #4 NO: cell type #4, normoxia; for mRNA expression level, #5 HY 6 hr: cell type #5, hypoxia 6 hr; for mRNA expression level, #5 NO: cell type #5, normoxia; for mRNA expression level, #6 HY 6 hr: cell type #6, hypoxia 6 hr; for #6 HY 18 hr (mRNA expression level): cell type #6, hypoxia 18 hr; for mRNA expression level, #6 NO: cell type #6, normoxia; for #7 HY 6 hr (mRNA expression level): cell type #7, hypoxia 6 hr; for #7 HY 18 hr (mRNA expression level): cell type #7, hypoxia 18 hr; for #7 NO (mRNA expression level): cell type #7, normoxia; for #8 HY 6 hr (mRNA expression level): cell type #8, hypoxia 6 hr; for #8 HY 18 hr (mRNA expression level): cell type #8, hypoxia 18 hr; for #8 NO (mRNA expression level): cell type #8, normoxia; for #9 HY 6 hr (mRNA expression level): cell type #9, hypoxia 6 hr; for #9 HY 18 hr (mRNA expression level): cell type #9, hypoxia 18 hr; for #9 NO (mRNA expression level): cell type #9, normoxia; for #10 HY 6 hr (mRNA expression level): cell type #10, hypoxia 6 hr; for #10 HY 18 hr (mRNA expression level): cell type #10, hypoxia 18 hr; for #10 NO (mRNA expression level): cell type #10, normoxia; for #11 HY 6 hr (mRNA expression level): cell type #11, hypoxia 6 hr; for #11 HY 18 hr (mRNA expression level): cell type #11, hypoxia 18 hr; for #11 NO (mRNA expression level): cell type #11, normoxia
# Description: Equivalent cultures of non-immortalized, non-transformed primary human cells of 10 distinct types, were cultured in either normoxia or were exposed to hypoxia for 6 hr and 18 hr, and gene expression changes were determined. […] Moreover, unlike the vast majority of information in the public domain relating to genes responsive to hypoxia, all of these cells were human and were cultured without any modifications following isolation from the human donors.
# A non-primary cell type (#9) was used to represent neurons, since primary human neurons are difficult to source. Therefore a total of 11 cell types are compared. It should be noted that RNA from hepatocytes at the […] timepoint of hypoxia was not available for this work.
# Each RNA sample was hybridised to duplicate or triplicate arrays, to ensure reproducible data, and was analysed using GeneSpring software. Data from replicate arrays were merged during analysis to generate mean values. Data normalisation was achieved per-array using the aforementioned list of control genes, such that differences in RNA labelling or hybridization due to experimental variation were corrected by referencing each gene to the mean value of the reference genes on the same array. Also, for each gene, expression values were obtained which represent the value in each experimental condition (e.g. macrophages 6 hr hypoxia) as compared to the median of value of that gene throughout the full range of experimental conditions (i.e. from all cell types). […] This is common in microarray data analysis.
# [1] = hypoxia/normoxia induction ratio, 18 hr monocyte
Molecule,"mRNA expression level, #1 HY 6 hr","mRNA expression level, #1 HY 18 hr","mRNA expression level, #1 NO","mRNA expression level, #2 HY 6 hr","mRNA expression level, #2 HY 18 hr","mRNA expression level, #2 NO","mRNA expression level, #3 HY 6 hr","mRNA expression level, #3 HY 18 hr","mRNA expression level, #3 NO","mRNA expression level, #4 HY 6 hr","mRNA expression level, #4 HY 18 hr","mRNA expression level, #4 NO","mRNA expression level, #5 HY 6 hr","mRNA expression level, #5 NO","mRNA expression level, #6 HY 6 hr",#6 HY 18 hr (mRNA expression level),"mRNA expression level, #6 NO",#7 HY 6 hr (mRNA expression level),#7 HY 18 hr (mRNA expression level),#7 NO (mRNA expression level),other results
"p1E11 (nucleic acid, listed as Homo Sapiens, EST array clone; misc_feature 12, 13, 317, 330, 366: n = A,T,C or G) DNA: TCTCTACAAATNNCTATAACAAAACTTTTTAGGAAAGTACCACAAATATGTTAAACAGAAGAAGCAAATCTCAAATAATGTGCAAAAGCTGTGAGTTTCTTCTTACATAAAACTGGTACCTAAGCAAGTGAGGGTTCATTTTATTTTTCACTCACCAATCCCCATATCATTATACAGTAACACCATACAGCCAAAACGGCCATGATATTCCTCCCTTCTCAGCCAAAATTGGGCAAGAGAGAATGACCCTTGTAGGGGAAAAGAAACCTCTACGATAAACTGAAATGCCACCATCAGGGTTTGTTGAAACTGTAGGNACAGGGTCTACGNCTCACTTAGCTGCTAATGAGTTTCTATGGTTCCAGNTGGGGTAGTTCAAAGTA",1.12,0.87,1.36,2.86,3.03,2.09,0.91,0.88,0.74,0.59,0.79,0.89,2.09,0.77,2.97,2.90,2.76,0.64,0.34,0.63,"#8 HY 6 hr (mRNA expression level): 1.47; #8 HY 18 hr (mRNA expression level): 1.35; #8 NO (mRNA expression level): 0.64; #9 HY 6 hr (mRNA expression level): 1.16; #9 HY 18 hr (mRNA expression level): 0.64; #9 NO (mRNA expression level): 1.18; #10 HY 6 hr (mRNA expression level): 0.79; #10 HY 18 hr (mRNA expression level): 0.88; #10 NO (mRNA expression level): 0.74; #11 HY 6 hr (mRNA expression level): 2.49; #11 HY 18 hr (mRNA expression level): 1.93; #11 NO (mRNA expression level): 1.79; HIGHEST FOLD CHANGE IN HYPOXIA (hr hypoxia + cell type) (hypoxia/normoxia induction ratio, 6 hr hepatocyte): 2.73 (6 hr hepatocyte) fold"
"p2A24 (nucleic acid, listed as Homo Sapiens) DNA: TTTTTTTTTATTTGGATTCTATTTATTTAAAATTAAATTCTTTGCAAAATTGAACTTCTCAACTAAAACGTGTCCATGTCAGAATTTTAACTGTTAGCAGGTAGTTTGTGGCAAAGATGGCTAAATAATGAAGCAAATTAGAATCTGTGTGTATACTAATGAGCTGCTTTTTTTCTGTTGAGACTATCATTATTTGTCTTATTACCCAAGAGGCAATTACCTGAATTTGGATGTCTGAATTATAACTTATGCAGGAATAGTTCTGTAAATACATTTAAATAAACTGTAAAGATATTTAATAAATATAGTATTTATACTAATCTGTGTGCTTCTTTTGGTTTGAATAGTAACTAAATGAGACACCAGCCCTTGACATTGAGTTTGTTGGTCACTATCAGGTCCTCATTTCCAAGCCTCCTAGTCATTCTAGCACTGATTATATGCTGCTACTTTAACTGGCTCCAGCTGCTTCACTACATCAGTTTAGCTTCCTCAGAAATTCATCAAAATGGACGGACAATTAAATGTAAATTATAGAACTTTTTCCCAGCTGAGGCTTTGCACCTTCCGTATAGTATAGAGGGAAGCTACAAAAA",0.65,0.67,1.21,2.21,2.48,2.42,3.05,2.59,2.35,0.76,0.68,1.10,0.91,0.68,0.22,,0.28,,,,"HIGHEST FOLD CHANGE IN HYPOXIA (hr hypoxia + cell type) (DOWN, 18 hr adipocyte): 1.85 DOWN (18 hr adipocyte) ^ fold"
"p1E9 (nucleic acid, listed as Homo Sapiens, misc_feature 420: n = A,T,C or G) DNA: AGACCCCCCAGGGTGCCTCCGAGAGCTGCCTCACAGAGGACTCCGACCAGGGAGACCTTCCATCCTCCTCCACCTGTTCCACCCAGAGGACGCTGATTCCACCTCCTAAAACCTGCCTACTTCAGGACTTTAAGACTCACAGTCTTCAGCCTGTTAATGATGTCTTCATGTTGAGTTTTATAGCATGACTGTTGACCTTAAGATCCATTCTCATTGCTGATAATGCTGCAGCCCTGCTGGTTTGGGCTTGCTCGAAGATTTTATTAAGGCACGAAGAAGTGAAAAACTAAGGGCTTCATTCACCATCACCAAGTATATCGAACCATATACTTGTTTGCCAAAAGGGTGGAAGGACTTTAATTCGGAAATACTTTACCTCTTAATTTGGCCATATTCAGGAGGCCTAAAAGGATTGATCCNTAATGTTATTTCACCGTGGTTTTTATTGAATGG",0.89,1.48,1.54,1.80,1.53,1.18,0.82,0.60,0.68,0.64,0.73,0.60,1.62,0.92,3.97,6.19,4.20,0.42,0.18,0.25,#8 HY 6 hr (mRNA expression level): 3.63; #8 HY 18 hr (mRNA expression level): 5.01; #8 NO (mRNA expression level): 2.33; #9 HY 6 hr (mRNA expression level): 0.80; #9 HY 18 hr (mRNA expression level): 0.85; #9 NO (mRNA expression level): 0.93; #10 HY 6 hr (mRNA expression level): 0.61; #10 HY 18 hr (mRNA expression level): 0.61; #10 NO (mRNA expression level): 0.57; #11 HY 6 hr (mRNA expression level): 1.37; #11 HY 18 hr (mRNA expression level): 1.17; #11 NO (mRNA expression level): 1.58; HIGHEST FOLD CHANGE IN HYPOXIA (hr hypoxia + cell type) [1]: 2.15 (18 hr monocyte) fold
"p1F1 (nucleic acid, listed as Homo Sapiens) DNA: TTTGTGTGGTCTTTTTTTTTTTTTCTCAGTGTTTTCAATTCCTCCTTGGTTGAATCCATGGATGCAAAACCCACAGATATGAAGGGCTGGCTATATATGCATTGATGATTGTCCTATTATATTAGTTATAAAGTGTCATTTAATATGTAGTGAAAGTTATGGTACAGTGGAAAGAGTAGTTGAAAACATAAACATTTGGGCCTTTCAAGAAAGGTAGCTTGGTGAAGTTTTTCACCTTCAAACTATGTCCCAGTCAGGG",0.33,0.52,0.58,1.19,1.14,1.42,1.70,1.49,1.64,0.63,0.54,0.95,0.50,0.37,0.61,0.51,0.62,0.90,0.30,0.91,#8 HY 6 hr (mRNA expression level): 0.53; #8 HY 18 hr (mRNA expression level): 0.66; #8 NO (mRNA expression level): 0.34; #9 HY 6 hr (mRNA expression level): 1.23; #9 HY 18 hr (mRNA expression level): 1.06; #9 NO (mRNA expression level): 1.66; #10 HY 6 hr (mRNA expression level): 1.58; #10 HY 18 hr (mRNA expression level): 1.03; #10 NO (mRNA expression level): 1.46; #11 HY 6 hr (mRNA expression level): 1.24; #11 HY 18 hr (mRNA expression level): 1.06; #11 NO (mRNA expression level): 1.25; HIGHEST FOLD CHANGE IN HYPOXIA (hr hypoxia + cell type) [1]: 1.96 (18 hr monocyte) fold

# — US20030203372A1, “Analysis method” (priority 2000, published 2003)
